Results: patent publication US20230062308A1, “TREATMENT OF CK8 POSITIVE CANCERS IN RELATION WITH K-RAS GENE STATUS” (INTERNATIONAL - DRUG - DEVELOPMENT - BIOTECH, priority 2017, published 2023)
Substitutions are numbered along the chain they refer to.

B1: D-A10: murine anti-CK8 monoclonal antibody (IgG2b); VL SEQ ID NO: 2, VH SEQ ID NO: 4 (antibody, V domains shown)
VH: EVQLLETGGGLVQPGGSRGLSCEGSGFTFSGFWMSWVRQTPGKTLEWIGDINSDGSAIKYAPSIKDRFTIFRDNDKSTLYLQMSNVRSEDTATYFCIAHYSGGGFAYWGQGTSVTVSS
VL: NIVMTQAAPSVPVTPGESVSISCRSSKSLLYSNGNTYLYWFLQRPGQSPQRLIYYMSNLASGVPDRFSGRGSGTDFTLRISRVEAEDVGVYYCMQSLEYPFTFGGGTKLEIK
modifications: VH mD-A10; VLmD-A10
B2: D-F5: murine anti-CK8 monoclonal antibody (IgG2a); VL SEQ ID NO: 40, VH SEQ ID NO: 42 (antibody, V domains shown)
VH: QVQLKESGPGLVAPSQSLSITCTVSGFSLTSYGVHWVRQPPGKGLEWLGVIWAGGSTNYNSALMSRLRISKDNSKSQVFLKMNSLQTDDTAMYYCARIYGNYGRFAYWGQGTSVTVSS
VL: DVVMTQTPLSLPVSLGDQASISCRSSQSIVHSNGNTYLEWYLQKPGQSPKLLIYKVSNRLSGVPDRFSGSGSGTDFTLKISRVEAEDLGVYYCFQGSLVPLTFGGGTKLEIK
modifications: VH-mR022 (D-F5); VL-mR022 (D-F5)
B3: D-D6: murine anti-CK8 monoclonal antibody (IgG1); VL SEQ ID NO: 36, VH SEQ ID NO: 38 (antibody, V domains shown)
VH: DVQLQESGPGLVKPSQSLSLTCTVTGYSITSDYAWNWIRQFPGNKLEWMGYISYSGRTSYNPSLKSRISITRDTSKNHFFLQLNSVTTEDTATYYCAPLTTGVGYAMDYWGQGTSVTVSS
VL: B2 VL with I29L, E39H, L51V, L60F, Y92F, F94S, G96S, S97T, L98H, L101F
modifications: VH-mR022 (D-D6); VL-mR022 (D-D6)

How the values were obtained:
[1] = test system: Human HAN larynx cell line BICR18; assay: In vivo tumour growth, HAN CDX model (larynx cell line BICR18); conditions: BICR18 s.c. in SCID mice; HzR022 (D-A10) 10 mg/kg i.p. BIW × 3; cisplatin 2.5 mg/kg i.p. QW × 3
Protocol: Human HAN larynx cell line BICR18 was subcutaneously injected in SCID mice, with a concentration of 1.10^6 cells per injection (200 μL). Mice were randomized when the tumours reached a mean volume of about 100 mm^3 for the 9 groups (total 45 mice). […] The endpoint was defined by animal ethics as a tumour diameter of >18 mm, significant weight loss or alteration of animal well-being. In order to assess the effectiveness of the compounds on tumourigenesis, tumour volume was measured two times a week. The size of the primary tumours were measured using calipers and the tumour volume (TV) was extrapolated to a sphere using the formula TV= 4/3π×r^3, by calculating the mean radius from the two measurements. The median and standard deviation were also calculated for each group. Median is preferred to mean in order to exclude the extreme values. MAb treatment was administered by intraperitoneal injection twice a week during three weeks at 10 or 1 mg/kg doses. The cisplatin (Myland) treatment was administered by intraperitoneal injection once per week during three weeks at 1, 2.5 or 5 mg/kg doses. The product was prepared in accordance with the sponsor's guidelines, i.e. diluted in PBS. Mice were sacrificed when the tumours reached a maximum volume of 1600 mm^3. […] The t-test (two-tailed test) was performed on the tumour volume values (mm^3) measured on the day of sacrifice.

CK8 = target: T1, CK8 (Homo sapiens, UniProt P05787); assay: Antibody internalisation assay by flow cytometry; assay type: cell-based; design: methods to investigate on CK8 cellular expression at the cell surface analysed by flow cytometry; endogenous in cells; conditions: 4° C. versus 37° C., 24 hours; 0.78 or 0.39 μg/mL; HCT116, U87MG, BICR56, BxPC3, DU145 cell lines (FIG. 4-6)
T1 sequence (P05787 1-483): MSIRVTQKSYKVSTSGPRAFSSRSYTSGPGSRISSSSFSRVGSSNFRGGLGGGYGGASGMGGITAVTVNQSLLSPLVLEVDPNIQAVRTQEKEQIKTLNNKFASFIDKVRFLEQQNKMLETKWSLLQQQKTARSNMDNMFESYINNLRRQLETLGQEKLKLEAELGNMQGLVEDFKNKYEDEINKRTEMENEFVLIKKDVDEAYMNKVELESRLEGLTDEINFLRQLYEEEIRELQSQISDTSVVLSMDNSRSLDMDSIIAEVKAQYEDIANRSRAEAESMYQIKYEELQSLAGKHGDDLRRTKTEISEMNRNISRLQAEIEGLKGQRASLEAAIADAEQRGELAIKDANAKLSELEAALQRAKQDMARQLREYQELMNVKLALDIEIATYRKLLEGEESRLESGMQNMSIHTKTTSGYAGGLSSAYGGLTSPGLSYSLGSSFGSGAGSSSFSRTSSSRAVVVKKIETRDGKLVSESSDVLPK
Protocol: This example describes methods to investigate on HzR022 (D-A10) internalisation following CK8 detection at the cell surface analysed by flow cytometry.
Flow cytometry experiments for MAb internalisation. Briefly, 2.10^5 cells per 96 wells are incubated at 4° C. versus 37° C. during 24 hours with a dilution of unconjugated murine anti CK8 MAb at 50 μg/mL then diluted at ½. The MAb anti CK8 tested were D-A10 (IgG2b), D-F5 (IgG2a) or D-D6 (IgG1), from iDD biotech MAb panel. The isotype matched MAbs used were B-Z1 (IgG1), B-Z2 (IgG2a) or B-E4 (IgG2b) (Diaclone, Besancon, France). Unbound antibodies were washed away with PBS (Life technologies, St Aubin, France) supplemented by 1% Bovine Serum Albumin (Sigma, St Quentin Fallavier, France). Subsequently, cells are centrifuged (5 min at 400 g) and bound antibody is detected with Fluorescein Isothiocyanate (FITC) conjugated goat (Fab′)2 polyclonal anti mouse Ig (MP Biomedical, Illkirch, France) at 4° C. for 30 min. Detection reagent is washed away and cells are centrifuged (5 min at 400 g) and suspended in 300 μL PBS. Bound detection antibody is quantified on a FACSCAN (BD Biosciences, Rungis, France), (FL1 channel, 3 000 events per acquisition). During the experiment, the respective isotype controls are included to exclude any unspecific binding events
Results of experiments are shown in FIG. 4 for D-A10 MAb (at 0.78 or 0.39 μg/mL), in FIG. 5 for D-D6 (at 0.78 or 0.39 μg/mL), in FIG. 6 for D-F5 (at 0.78 or 0.39 μg/mL). One example was shown for CRC from HCT116 cell line, GBM from U87MG cell line, HAN from BIRC56 cell line, PC from BxPC3 or PRC from DU145.

Molecule	tumour growth control (tumour volume, FIG. 3) [1]	internalization potential (CK8)
N.N.[Cl][Pt][Cl] [cisplatin, reference compound]	rapid cisplatin escape	
B1		highest internalization potential
B2		lower internalization potential
B3		highest internalization potential
